Source: US20250099587A1 (KELONIA THERAPEUTICS, published 2025)

T1: recombinant, phycoerythrin (PE) labeled, BCMA extracellular domain-FC fusion protein (Homo sapiens (Human), UniProt Q02223 1-54, phycoerythrin (PE) label)
T1 construct: The whole entry is named here; only the extracellular domain stood in the assay; also called BCMA-PE; not shown: Fc part of the staining reagent
T1 sequence: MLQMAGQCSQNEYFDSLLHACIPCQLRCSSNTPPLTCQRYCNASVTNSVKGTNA


Target: T1, recombinant, phycoerythrin (PE) …
Assay: flow cytometry of transduced PBMCs stained with BCMA-PE (PE-labeled BCMA extracellular domain-Fc)
Protocol: 5×10⁵ human PBMCs were plated in each well of a 24-well plate. Cells were transduced with recombinant lentiviruses LV 1 to LV 19 at a MOI 2 based on the Jurkat functional titer, or a 0.5 mL volumetric transduction if MOI 2 was not achievable. Seven days post-transduction, PBMCs were harvested and stained with BCMA-PE and analyzed by flow cytometry to assess the percentage of anti-BCMA CAR expressing cells. FIG. 2B.

Binder	binding result
anti-BCMA CAR of recombinant lentivirus LV 9 (SEQ ID NO: 273) (receptor, also called LV 9.1 to LV 9.9) EVQLLESGGGLVQPGGSLRLSCAASGFTFGSEAMSWVRQAPGKERELVSAISGSGEVTYYADSVKGRFTISRDNSKNTLYLQMNSLRAEDTAVYYCQRLVEAKRHWGQGTQVTVSSTTTPAPRPPTPAPTIASQPLSLRPEACRPAAGGAVHTRGLDFACDIYIWAPLAGTCGVLLLSLVITLYCKRGRKKLLYIFKQPFMRPVQTTQEEDGCSCRFPEEEEGGCELRVKFSRSADAPAYQQGQNQLYNELNLGRREEYDVLDKRRGRDPEMGGKPRRKNPQEGLYNELQKDKMAEAYSEIGMKGERRRGKGHDGLYQGLSTATKDTYDALHMQALPPR	binds
anti-BCMA CAR of recombinant lentivirus LV 11 (SEQ ID NO: 275) (receptor) EVQLLESGGGLVQPGGSLRLSCAASGFTFDEYTMHWFRQAPGKEREFVSAISGGGSETYYADSVKGRFTISRDNSKNTLYLQMNSLRAEDTAVYYCAAGGEEAGVGYWGQGTQVTVSSTTTPAPRPPTPAPTIASQPLSLRPEACRPAAGGAVHTRGLDFACDIYIWAPLAGTCGVLLLSLVITLYCKRGRKKLLYIFKQPFMRPVQTTQEEDGCSCRFPEEEEGGCELRVKFSRSADAPAYQQGQNQLYNELNLGRREEYDVLDKRRGRDPEMGGKPRRKNPQEGLYNELQKDKMAEAYSEIGMKGERRRGKGHDGLYQGLSTATKDTYDALHMQALPPR	binds
anti-BCMA CAR of recombinant lentivirus LV 8 (SEQ ID NO: 270) (receptor, also called LV 8.1 to LV 8.9) DIQMTQSPSSLSASVGDRVTITCQASQDIANYLNWYQQKPGKAPKLLIYDASNLETGVPSRFSGSGSGTDFTFTISSLQPEDIATYYCQQHFNLPLTFGGGTKVEIKGGGGSGGGGSGGGGSGGGGSQITLKESGPTLVKPTQTLTLTCTFSGFSLSTSGVGVGWIRQPPGKALEWLALIYWNDEKRYSPSLKSRLTITKDTSKNQVVLTMTNMDPVDTAVYYCAREGSHDYKSSNWFDPWGQGTLVTVSSTTTPAPRPPTPAPTIASQPLSLRPEACRPAAGGAVHTRGLDFACDIYIWAPLAGTCGVLLLSLVITLYCKRGRKKLLYIFKQPFMRPVQTTQEEDGCSCRFPEEEEGGCELRVKFSRSADAPAYQQGQNQLYNELNLGRREEYDVLDKRRGRDPEMGGKPRRKNPQEGLYNELQKDKMAEAYSEIGMKGERRRGKGHDGLYQGLSTATKDTYDALHMQALPPR	binds
anti-BCMA CAR of recombinant lentivirus LV 18 (SEQ ID NO: 283) (receptor) EVQLLESGGGLVQPGGSLRLSCAASGFTFSSEGMSWVRQAPGKERELVSAISGSGDHTYYADSVRGRFTISRDNSKNTLYLQMNSLRAEDTAVYYCNALEGGPTTAIQPGGPDYWGQGTQVTVSSTTTPAPRPPTPAPTIASQPLSLRPEACRPAAGGAVHTRGLDFACDIYIWAPLAGTCGVLLLSLVITLYCKRGRKKLLYIFKQPFMRPVQTTQEEDGCSCRFPEEEEGGCELRVKFSRSADAPAYQQGQNQLYNELNLGRREEYDVLDKRRGRDPEMGGKPRRKNPQEGLYNELQKDKMAEAYSEIGMKGERRRGKGHDGLYQGLSTATKDTYDALHMQALPPR	binds
anti-BCMA CAR of recombinant lentivirus LV 10 (SEQ ID NO: 274) (receptor) EVQLLESGGGLVQPGGSLRLSCAASGFTFESEAMSWYRQAPGKERELVSVITSEGSTYYADSVKGRFTISRDNSKNTLYLQMNSLRAEDTAVYYCAHIEWETRLNWGQGTQVTVSSTTTPAPRPPTPAPTIASQPLSLRPEACRPAAGGAVHTRGLDFACDIYIWAPLAGTCGVLLLSLVITLYCKRGRKKLLYIFKQPFMRPVQTTQEEDGCSCRFPEEEEGGCELRVKFSRSADAPAYQQGQNQLYNELNLGRREEYDVLDKRRGRDPEMGGKPRRKNPQEGLYNELQKDKMAEAYSEIGMKGERRRGKGHDGLYQGLSTATKDTYDALHMQALPPR	binds
anti-BCMA CAR of recombinant lentivirus LV 15 (SEQ ID NO: 279) (receptor) EVQLLESGGGLVQPGGSLRLSCAASGFTFDSYTMSWYRQAPGKERELVSAISGHGDSTYYADSVKGRFTISRDNSKNTLYLQMNSLRAEDTAVYYCTRISITTEWLAGDYWGQGTQVTVSSTTTPAPRPPTPAPTIASQPLSLRPEACRPAAGGAVHTRGLDFACDIYIWAPLAGTCGVLLLSLVITLYCKRGRKKLLYIFKQPFMRPVQTTQEEDGCSCRFPEEEEGGCELRVKFSRSADAPAYQQGQNQLYNELNLGRREEYDVLDKRRGRDPEMGGKPRRKNPQEGLYNELQKDKMAEAYSEIGMKGERRRGKGHDGLYQGLSTATKDTYDALHMQALPPR	binds
anti-BCMA CAR of recombinant lentivirus LV 12 (SEQ ID NO: 276) (receptor) EVQLLESGGGLVQPGGSLRLSCAASGFTFEDYAMSWFRQAPGKEREGVSAISGKGGSTYYADSVKGRFTISRDNSKNTLYLQMNSLRAEDTAVYYCAVLDEEAGAEGGYWGQGTQVTVSSTTTPAPRPPTPAPTIASQPLSLRPEACRPAAGGAVHTRGLDFACDIYIWAPLAGTCGVLLLSLVITLYCKRGRKKLLYIFKQPFMRPVQTTQEEDGCSCRFPEEEEGGCELRVKFSRSADAPAYQQGQNQLYNELNLGRREEYDVLDKRRGRDPEMGGKPRRKNPQEGLYNELQKDKMAEAYSEIGMKGERRRGKGHDGLYQGLSTATKDTYDALHMQALPPR	binds
anti-BCMA CAR of recombinant lentivirus LV 13 (SEQ ID NO: 277) (receptor, also called LV 13.1 to LV 13.9) EVQLLESGGGLVQPGGSLRLSCAASGFTFDRYAMSWFRQAPGKEREGVSAISTSGDSTYYADSVKGRFTISRDNSKNTLYLQMNSLRAEDTAVYYCAVLDEEAGAEGGYWGQGTQVTVSSTTTPAPRPPTPAPTIASQPLSLRPEACRPAAGGAVHTRGLDFACDIYIWAPLAGTCGVLLLSLVITLYCKRGRKKLLYIFKQPFMRPVQTTQEEDGCSCRFPEEEEGGCELRVKFSRSADAPAYQQGQNQLYNELNLGRREEYDVLDKRRGRDPEMGGKPRRKNPQEGLYNELQKDKMAEAYSEIGMKGERRRGKGHDGLYQGLSTATKDTYDALHMQALPPR	binds
anti-BCMA CAR of recombinant lentivirus LV 3 (SEQ ID NO: 259) (receptor, also called LV 3.1 to LV 3.9) QVQLVESGGGVVQPGRSLRLSCAASGFTFSSYGMHWVRQAPGKGLEWVAVISYEGSNKYYADSVKGRFTISRDNSKNTLYLQMNSLRAEDTAVYYCARELGDGMDVWGQGTTVTVSSGGGGSGGGGSGGGGSGGGGSEIVLTQSPATLSLSPGERATLSCRASQSVSSYLAWFQQKPGQAPRLLIYDASNRATGIPARFSGSGSGTDFTLTISSLEPEDFAVYYCQQRVDLWTFGGGTKVEIKTTTPAPRPPTPAPTIASQPLSLRPEACRPAAGGAVHTRGLDFACDIYIWAPLAGTCGVLLLSLVITLYCKRGRKKLLYIFKQPFMRPVQTTQEEDGCSCRFPEEEEGGCELRVKFSRSADAPAYQQGQNQLYNELNLGRREEYDVLDKRRGRDPEMGGKPRRKNPQEGLYNELQKDKMAEAYSEIGMKGERRRGKGHDGLYQGLSTATKDTYDALHMQALPPR	binds
anti-BCMA CAR of recombinant lentivirus LV 5 (SEQ ID NO: 263) (receptor, also called LV 5.1 to LV 5.9) QVQLVESGGGLVKPGGSLRLSCAASGFTFSDYYMSWIRQAPGKGLEWVSYISSSGSTIYYADSVKGRFTISRDNAKNSLYLQMNSLRAEDTAVYYCARDQGNYGVDVWGQGTTVTVSSGGGGSGGGGSGGGGSGGGGSDIQMTQSPSTLSASVGDRVTITCRASQSISSWLAWYQQKPGKAPKLLIYEASSLESGVPSRFSGSGSGTEFTLTISSLQPDDFATYYCQQSDSHPITFGGGTKVEIKTTTPAPRPPTPAPTIASQPLSLRPEACRPAAGGAVHTRGLDFACDIYIWAPLAGTCGVLLLSLVITLYCKRGRKKLLYIFKQPFMRPVQTTQEEDGCSCRFPEEEEGGCELRVKFSRSADAPAYQQGQNQLYNELNLGRREEYDVLDKRRGRDPEMGGKPRRKNPQEGLYNELQKDKMAEAYSEIGMKGERRRGKGHDGLYQGLSTATKDTYDALHMQALPPR	binds
anti-BCMA CAR of recombinant lentivirus LV 7 (SEQ ID NO: 268) (receptor) DIQMTQSPSSLSASVGDRVTITCRASQSISSYLNWYQQKPGKAPKLLIYAASSLQSGVPSRFSGSGSGTDFTLTISSLQPEDFATYYCQQAHSSPITFGGGTKVEIKGGGGSGGGGSGGGGSGGGGSEVQLLESGGGLVQPGGSLRLSCAASGFTFSNYAMSWVRQAPGKGLEWVSAISGSGGSTYYADSVKGRFTISRDNSKNTLYLQMNSLRAEDTAVYYCARPGDGYYEGVYFDYWGQGTLVTVSSTTTPAPRPPTPAPTIASQPLSLRPEACRPAAGGAVHTRGLDFACDIYIWAPLAGTCGVLLLSLVITLYCKRGRKKLLYIFKQPFMRPVQTTQEEDGCSCRFPEEEEGGCELRVKFSRSADAPAYQQGQNQLYNELNLGRREEYDVLDKRRGRDPEMGGKPRRKNPQEGLYNELQKDKMAEAYSEIGMKGERRRGKGHDGLYQGLSTATKDTYDALHMQALPPR	binds
anti-BCMA CAR of recombinant lentivirus LV 1 (SEQ ID NO: 256) (receptor) EIVLTQSPATLSLSPGERATLSCRASQSVSSYLAWYQQKPGQAPRLLIYDASNRATGIPARFSGSGSGTDFTLTISSLEPEDFAVYYCQQRVVYPITFGGGTKVEIKGGGGSGGGGSGGGGSGGGGSQITLKESGPTLVKPTQTLTLTCTFSGFSLSTSGVGVGWIRQPPGKALEWLALIYWNDEKRYSPSLKSRLTITKDTSKNQVVLTMTNMDPVDTAVYYCARDEYGGFDIWGQGTMVTVSSTTTPAPRPPTPAPTIASQPLSLRPEACRPAAGGAVHTRGLDFACDIYIWAPLAGTCGVLLLSLVITLYCKRGRKKLLYIFKQPFMRPVQTTQEEDGCSCRFPEEEEGGCELRVKFSRSADAPAYQQGQNQLYNELNLGRREEYDVLDKRRGRDPEMGGKPRRKNPQEGLYNELQKDKMAEAYSEIGMKGERRRGKGHDGLYQGLSTATKDTYDALHMQALPPR	binds
anti-BCMA CAR of recombinant lentivirus LV 2 (SEQ ID NO: 258) (receptor) EIVLTQSPATLSLSPGERATLSCRASQSVSSYLAWYQQKPGQAPRLLIYDASNRATGIPARFSGSGSGTDFTLTISSLEPEDFAVYYCQQRFDYPITFGGGTKVEIKGGGGSGGGGSGGGGSGGGGSQITLKESGPTLVKPTQTLTLTCTFSGFSLSTSGVGVGWIRQPPGKALEWLALIYWNDDKRYSPSLKSRLTITKDTSKNQVVLTMTNMDPVDTAVYYCARDEYGGFDIWGQGTMVTVSSTTTPAPRPPTPAPTIASQPLSLRPEACRPAAGGAVHTRGLDFACDIYIWAPLAGTCGVLLLSLVITLYCKRGRKKLLYIFKQPFMRPVQTTQEEDGCSCRFPEEEEGGCELRVKFSRSADAPAYQQGQNQLYNELNLGRREEYDVLDKRRGRDPEMGGKPRRKNPQEGLYNELQKDKMAEAYSEIGMKGERRRGKGHDGLYQGLSTATKDTYDALHMQALPPR	binds
